Results reported in US20200131230A1 (published 2020).
Read-outs that look alike come from different tables or passages of the source. One block for each binder: values may come before it. Positions of bridges follow the written chain, without caps; N, C: chain ends. Non-standard residues stand in square brackets, D forms with d. 2Nal = N[C@@H](Cc1ccc2ccccc2c1)C(=O)O; Phg = N[C@H](C(=O)O)c1ccccc1; Tle = CC(C)(C)[C@H](N)C(=O)O; Nle = CCCC[C@H](N)C(=O)O; AMF = not defined here

What was measured:
[1] = target: T1, Thrombospondin human platelet (Calbiochem, 605225) (human, UniProt P07996 19-1170); experiment: cell-based or functional assay
[2] = target: Recombinant-hTSP1 (human, UniProt P07996 19-1170, limits assumed); experiment: SPR (Biacore T200), single-cycle kinetics, recombinant hTSP1 immobilised on NTA chip
Description: First, 500 μM NiCl₂ was injected over an NTA-Chip (produced by GE Healthcare, BR100532) at a flow rate of 5 μL/min. for 1 minute to thereby activate NTA groups. Then, an EDC/NHS mixture was injected at a flow rate of 10 μL/min. for 7 minutes to thereby activate the carboxyl groups of dextran. Recombinant-hTSP1 was injected at a flow rate of 10 μL/min. for 7 minutes to immobilize the TSP1 on the substrate surfaces with activated NTA and carboxyl groups. Ethanolamine was injected at a flow rate of 10 μL/min. for 7 minutes to thereby deactivate unreacted, activated carboxyl groups.
Since Biacore T200 is highly responsive to change in DMSO concentrations, DMSO solutions were sequentially injected at concentrations of 4%, 4.4%, 4.8%, 5.2%, 5.6%, and 6% to correct for DMSO effects.
The analysis was conducted using the evaluation software provided with Biacore T100 and T200. A DMSO correction curve obtained by solvent correction measurements was applied for the analysis. Kinetics fitting was done on the difference data obtained by subtracting the baseline data from sample measurement data.

[3] = target: T1, Thrombospondin human platelet …; experiment: cell-based or functional assay; remark: listed apart in the source

Chain of Recombinant-hTSP1 (P07996 19-1170 limits assumed): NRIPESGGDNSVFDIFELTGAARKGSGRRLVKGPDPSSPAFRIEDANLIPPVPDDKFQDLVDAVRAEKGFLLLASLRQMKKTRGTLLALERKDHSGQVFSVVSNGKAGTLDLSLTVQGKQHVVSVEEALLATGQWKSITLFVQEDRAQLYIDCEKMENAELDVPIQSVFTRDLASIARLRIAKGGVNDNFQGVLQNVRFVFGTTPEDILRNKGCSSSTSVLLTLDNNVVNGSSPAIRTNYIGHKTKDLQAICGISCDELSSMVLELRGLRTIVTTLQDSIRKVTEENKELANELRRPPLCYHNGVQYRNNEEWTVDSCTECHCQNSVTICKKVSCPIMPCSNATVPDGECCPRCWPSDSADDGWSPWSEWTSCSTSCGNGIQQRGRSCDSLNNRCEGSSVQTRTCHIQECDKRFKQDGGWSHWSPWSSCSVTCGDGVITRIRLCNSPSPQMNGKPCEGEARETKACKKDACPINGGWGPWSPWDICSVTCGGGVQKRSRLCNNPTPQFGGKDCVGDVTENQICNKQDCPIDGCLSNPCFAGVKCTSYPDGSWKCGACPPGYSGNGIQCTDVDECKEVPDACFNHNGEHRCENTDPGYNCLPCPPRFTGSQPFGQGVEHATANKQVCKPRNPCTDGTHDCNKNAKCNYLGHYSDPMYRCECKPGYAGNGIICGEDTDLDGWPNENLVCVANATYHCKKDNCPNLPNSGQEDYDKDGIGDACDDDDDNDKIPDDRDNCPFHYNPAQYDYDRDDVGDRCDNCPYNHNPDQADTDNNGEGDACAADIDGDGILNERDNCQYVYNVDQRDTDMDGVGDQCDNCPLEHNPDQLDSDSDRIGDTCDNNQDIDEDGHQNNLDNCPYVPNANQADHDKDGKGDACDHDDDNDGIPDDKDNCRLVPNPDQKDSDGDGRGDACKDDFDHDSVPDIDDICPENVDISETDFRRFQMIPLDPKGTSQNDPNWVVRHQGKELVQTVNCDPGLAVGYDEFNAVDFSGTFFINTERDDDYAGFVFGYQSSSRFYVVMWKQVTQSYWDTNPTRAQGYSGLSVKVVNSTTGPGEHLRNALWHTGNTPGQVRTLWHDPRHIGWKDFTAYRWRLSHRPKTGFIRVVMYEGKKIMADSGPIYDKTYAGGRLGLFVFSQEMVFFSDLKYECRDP
T1 sequence (P07996 19-1170 limits assumed): as above

B4: Compound 3 (peptide)
peptide: {CH2CO}-FISGRNWVKWVC-NH2
modifications: thioether N-12
SMILES: CC[C@H](C)[C@@H]1NC(=O)[C@H](Cc2ccccc2)NC(=O)CSC[C@@H](C(N)=O)NC(=O)[C@H](C(C)C)NC(=O)[C@H](Cc2c[nH]c3ccccc23)NC(=O)[C@H](CCCCN)NC(=O)[C@H](C(C)C)NC(=O)[C@H](Cc2c[nH]c3ccccc23)NC(=O)[C@H](CC(N)=O)NC(=O)[C@H](CCCNC(=N)N)NC(=O)CNC(=O)[C@H](CO)NC1=O
Kd [2]: 0.25 nM
Cell adhesion IC50 [3]: 20.8 nM

B6: Compound 6 (peptide)
peptide: {CH2CO}-FRSGRNWVKWVC-NH2
modifications: thioether N-12
SMILES: CC(C)[C@@H]1NC(=O)[C@H](Cc2c[nH]c3ccccc23)NC(=O)[C@H](CCCCN)NC(=O)[C@H](C(C)C)NC(=O)[C@H](Cc2c[nH]c3ccccc23)NC(=O)[C@H](CC(N)=O)NC(=O)[C@H](CCCNC(=N)N)NC(=O)CNC(=O)[C@H](CO)NC(=O)[C@H](CCCNC(=N)N)NC(=O)[C@H](Cc2ccccc2)NC(=O)CSC[C@@H](C(N)=O)NC1=O
Kd [2]: 0.44 nM
Cell adhesion IC50 [3]: 27.3 nM

B7: Compound 1 (peptide)
peptide: {CH2CO}-FISGRNWVVWVC-NH2
modifications: thioether N-12
SMILES: CC[C@H](C)[C@@H]1NC(=O)[C@H](Cc2ccccc2)NC(=O)CSC[C@@H](C(N)=O)NC(=O)[C@H](C(C)C)NC(=O)[C@H](Cc2c[nH]c3ccccc23)NC(=O)[C@H](C(C)C)NC(=O)[C@H](C(C)C)NC(=O)[C@H](Cc2c[nH]c3ccccc23)NC(=O)[C@H](CC(N)=O)NC(=O)[C@H](CCCNC(=N)N)NC(=O)CNC(=O)[C@H](CO)NC1=O
Kd [2]: 0.51 nM
Cell adhesion IC50 [3]: 34.9 nM

B9: Compound 5 (peptide)
peptide: {CH2CO}-FISGRNWVRWRC-NH2
modifications: thioether N-12
SMILES: CC[C@H](C)[C@@H]1NC(=O)[C@H](Cc2ccccc2)NC(=O)CSC[C@@H](C(N)=O)NC(=O)[C@H](CCCNC(=N)N)NC(=O)[C@H](Cc2c[nH]c3ccccc23)NC(=O)[C@H](CCCNC(=N)N)NC(=O)[C@H](C(C)C)NC(=O)[C@H](Cc2c[nH]c3ccccc23)NC(=O)[C@H](CC(N)=O)NC(=O)[C@H](CCCNC(=N)N)NC(=O)CNC(=O)[C@H](CO)NC1=O
Kd [2]: 0.9 nM
Cell adhesion IC50 [3]: 33.4 nM

B10: Compound 10 (peptide)
peptide: {CH2CO}-FISGKNWVRWVC-NH2
modifications: thioether N-12
SMILES: CC[C@H](C)[C@@H]1NC(=O)[C@H](Cc2ccccc2)NC(=O)CSC[C@@H](C(N)=O)NC(=O)[C@H](C(C)C)NC(=O)[C@H](Cc2c[nH]c3ccccc23)NC(=O)[C@H](CCCNC(=N)N)NC(=O)[C@H](C(C)C)NC(=O)[C@H](Cc2c[nH]c3ccccc23)NC(=O)[C@H](CC(N)=O)NC(=O)[C@H](CCCCN)NC(=O)CNC(=O)[C@H](CO)NC1=O
Kd [2]: 0.091 nM
Cell adhesion IC50 [3]: 10.9 nM

B12: Compound 4 (peptide)
peptide: {CH2CO}-FISGRNWVRWVC-NH2
modifications: thioether N-12
SMILES: CC[C@H](C)[C@@H]1NC(=O)[C@H](Cc2ccccc2)NC(=O)CSC[C@@H](C(N)=O)NC(=O)[C@H](C(C)C)NC(=O)[C@H](Cc2c[nH]c3ccccc23)NC(=O)[C@H](CCCNC(=N)N)NC(=O)[C@H](C(C)C)NC(=O)[C@H](Cc2c[nH]c3ccccc23)NC(=O)[C@H](CC(N)=O)NC(=O)[C@H](CCCNC(=N)N)NC(=O)CNC(=O)[C@H](CO)NC1=O
Kd [2]: 0.26 nM
Cell adhesion IC50 [3]: 11.2 nM

B13: Compound 7 (peptide)
peptide: {CH2CO}-FISGKNWVKWVC-NH2
modifications: thioether N-12
SMILES: CC[C@H](C)[C@@H]1NC(=O)[C@H](Cc2ccccc2)NC(=O)CSC[C@@H](C(N)=O)NC(=O)[C@H](C(C)C)NC(=O)[C@H](Cc2c[nH]c3ccccc23)NC(=O)[C@H](CCCCN)NC(=O)[C@H](C(C)C)NC(=O)[C@H](Cc2c[nH]c3ccccc23)NC(=O)[C@H](CC(N)=O)NC(=O)[C@H](CCCCN)NC(=O)CNC(=O)[C@H](CO)NC1=O
Kd [2]: 0.12 nM
Cell adhesion IC50 [3]: 20.6 nM

B14: Compound 2 (peptide)
peptide: {CH2CO}-FRSGRNWVVWVC-NH2
modifications: thioether N-12
SMILES: CC(C)[C@@H]1NC(=O)[C@H](Cc2c[nH]c3ccccc23)NC(=O)[C@H](C(C)C)NC(=O)[C@H](C(C)C)NC(=O)[C@H](Cc2c[nH]c3ccccc23)NC(=O)[C@H](CC(N)=O)NC(=O)[C@H](CCCNC(=N)N)NC(=O)CNC(=O)[C@H](CO)NC(=O)[C@H](CCCNC(=N)N)NC(=O)[C@H](Cc2ccccc2)NC(=O)CSC[C@@H](C(N)=O)NC1=O
Kd [2]: 0.15 nM
Cell adhesion IC50 [3]: 25.5 nM

B15: Compound 9 (peptide)
peptide: {CH2CO}-WISGRNWVKWVC-NH2
modifications: thioether N-12
SMILES: CC[C@H](C)[C@@H]1NC(=O)[C@H](Cc2c[nH]c3ccccc23)NC(=O)CSC[C@@H](C(N)=O)NC(=O)[C@H](C(C)C)NC(=O)[C@H](Cc2c[nH]c3ccccc23)NC(=O)[C@H](CCCCN)NC(=O)[C@H](C(C)C)NC(=O)[C@H](Cc2c[nH]c3ccccc23)NC(=O)[C@H](CC(N)=O)NC(=O)[C@H](CCCNC(=N)N)NC(=O)CNC(=O)[C@H](CO)NC1=O
Kd [2]: 0.23 nM
Cell adhesion IC50 [3]: 27.3 nM

Second part, the binder after the results:

Cell adhesion IC50 [1]: 10.4 nM
B1: Compound 48 (peptide)
peptide: {CH2CO}-[2Nal][Nle]SGRNWVKWVC-NH2
modifications: thioether N-12
SMILES: CCCC[C@@H]1NC(=O)[C@H](Cc2ccc3ccccc3c2)NC(=O)CSC[C@@H](C(N)=O)NC(=O)[C@H](C(C)C)NC(=O)[C@H](Cc2c[nH]c3ccccc23)NC(=O)[C@H](CCCCN)NC(=O)[C@H](C(C)C)NC(=O)[C@H](Cc2c[nH]c3ccccc23)NC(=O)[C@H](CC(N)=O)NC(=O)[C@H](CCCNC(=N)N)NC(=O)CNC(=O)[C@H](CO)NC1=O

Cell adhesion IC50 [1]: 11.6 nM
B2: Compound 50 (peptide)
peptide: {CH2CO}-[2Nal][Tle]SGRNWVKWVC-NH2
modifications: thioether N-12
SMILES: CC(C)[C@@H]1NC(=O)[C@H](Cc2c[nH]c3ccccc23)NC(=O)[C@H](CCCCN)NC(=O)[C@H](C(C)C)NC(=O)[C@H](Cc2c[nH]c3ccccc23)NC(=O)[C@H](CC(N)=O)NC(=O)[C@H](CCCNC(=N)N)NC(=O)CNC(=O)[C@H](CO)NC(=O)[C@H](C(C)(C)C)NC(=O)[C@H](Cc2ccc3ccccc3c2)NC(=O)CSC[C@@H](C(N)=O)NC1=O

Cell adhesion IC50 [1]: 16.7 nM
Binder: {CH2CO}-FISGRNWV[AMF]WVC-NH2 (thioether N-12; reading uncertain) [Compound 47]

Cell adhesion IC50 [1]: 30.3 nM
Binder: {CH2CO}-FISGRNWV[3MH]WVC-NH2 (thioether N-12) [Compound 46]

Cell adhesion IC50 [1]: 11.5 nM
B3: Compound 49 (peptide)
peptide: {CH2CO}-[2Nal][Phg]SGRNWVKWVC-NH2
modifications: thioether N-12
SMILES: CC(C)[C@@H]1NC(=O)[C@H](Cc2c[nH]c3ccccc23)NC(=O)[C@H](CCCCN)NC(=O)[C@H](C(C)C)NC(=O)[C@H](Cc2c[nH]c3ccccc23)NC(=O)[C@H](CC(N)=O)NC(=O)[C@H](CCCNC(=N)N)NC(=O)CNC(=O)[C@H](CO)NC(=O)[C@H](c2ccccc2)NC(=O)[C@H](Cc2ccc3ccccc3c2)NC(=O)CSC[C@@H](C(N)=O)NC1=O

Kd [2]: 0.096 nM
Cell adhesion IC50 [3]: 18.7 nM
B5: Compound 13 (peptide)
peptide: {CH2CO}-FISGRTWVKWVC-NH2
modifications: thioether N-12
SMILES: CC[C@H](C)[C@@H]1NC(=O)[C@H](Cc2ccccc2)NC(=O)CSC[C@@H](C(N)=O)NC(=O)[C@H](C(C)C)NC(=O)[C@H](Cc2c[nH]c3ccccc23)NC(=O)[C@H](CCCCN)NC(=O)[C@H](C(C)C)NC(=O)[C@H](Cc2c[nH]c3ccccc23)NC(=O)[C@H]([C@@H](C)O)NC(=O)[C@H](CCCNC(=N)N)NC(=O)CNC(=O)[C@H](CO)NC1=O

Kd [2]: 0.38 nM
Cell adhesion IC50 [3]: 22.2 nM
B8: Compound 12 (peptide)
peptide: {CH2CO}-FITGRNWVKWVC-NH2
modifications: thioether N-12
SMILES: CC[C@H](C)[C@@H]1NC(=O)[C@H](Cc2ccccc2)NC(=O)CSC[C@@H](C(N)=O)NC(=O)[C@H](C(C)C)NC(=O)[C@H](Cc2c[nH]c3ccccc23)NC(=O)[C@H](CCCCN)NC(=O)[C@H](C(C)C)NC(=O)[C@H](Cc2c[nH]c3ccccc23)NC(=O)[C@H](CC(N)=O)NC(=O)[C@H](CCCNC(=N)N)NC(=O)CNC(=O)[C@H]([C@@H](C)O)NC1=O

Kd [2]: 0.14 nM
Cell adhesion IC50 [3]: 26.3 nM
B11: Compound 11 (peptide)
peptide: {CH2CO}-WISGRNWVRWVC-NH2
modifications: thioether N-12
SMILES: CC[C@H](C)[C@@H]1NC(=O)[C@H](Cc2c[nH]c3ccccc23)NC(=O)CSC[C@@H](C(N)=O)NC(=O)[C@H](C(C)C)NC(=O)[C@H](Cc2c[nH]c3ccccc23)NC(=O)[C@H](CCCNC(=N)N)NC(=O)[C@H](C(C)C)NC(=O)[C@H](Cc2c[nH]c3ccccc23)NC(=O)[C@H](CC(N)=O)NC(=O)[C@H](CCCNC(=N)N)NC(=O)CNC(=O)[C@H](CO)NC1=O
